Test results from EP4349860A1.

Columns and labels:
Assay in all cases: cell-based or functional assay
[1] = target: SARS-CoV-2 spike protein, Alpha (B.1.1.7) variant, on pseudovirus (SARS-CoV-2 (Alpha variant))
[2] = target: SARS-CoV-2 spike protein, Beta (B.1.351) variant, on pseudovirus (SARS-CoV-2 (Beta variant))
[3] = target: SARS-CoV-2 spike protein, Delta (B.1.617.2) variant, on pseudovirus (SARS-CoV-2 (Delta variant))
[4] = target: SARS-CoV-2 spike protein, Gamma (P.1) variant, on pseudovirus (SARS-CoV-2 (Gamma variant))
[5] = target: SARS-CoV-2 spike protein, Omicron BA.2 variant, on pseudovirus (SARS-CoV-2 (Omicron BA.2 variant))
[6] = target: SARS-CoV-2 spike protein, Omicron BA.4/BA.5 variants, on pseudovirus (SARS-CoV-2 (Omicron BA.4/BA.5 variants))

Substance | IC50 (µg/ml), pseudotyped virus neutralization [1] [µg/mL] | IC50 (µg/ml), pseudotyped virus neutralization [2] [µg/mL] | IC50 (µg/ml), pseudotyped virus neutralization [3] [µg/mL] | IC50 (µg/ml), pseudotyped virus neutralization [4] [µg/mL] | IC50 (µg/ml), pseudotyped virus neutralization [5] [µg/mL] | IC50 (µg/ml), pseudotyped virus neutralization [6] [µg/mL]
S309 (antibody) | 0.0347 | 0.0043 | 0.0336 | 0.0083 | 0.416 | 0.142
S2E12 (antibody) | 0.0004 | < 0.0003 | < 0.0003 | 0.0003 | 0.137 | > 1
